The values that follow come from PMC8787470, “Functional Irreplaceability of Escherichia coli and Shewanella oneidensis OxyRs Is Critically Determined by Intrinsic Differences in Oligomerization” (mBio, 2022).

Data set [1] deals with the molecule itself. The data set is described as follows: crystal structure; SoOxyR RD C203S crystallised at 20°C by hanging-drop vapor diffusion, 4.0 M ammonium acetate, 0.1 M Bis-Tris propane pH 7.0; six molecules in the asymmetric unit; interfaces listed with PDBePISA.
Data set [2] concerns the molecule itself. Briefly: native gel or EMSA; oligomers read from shifted bands of protein on DNA: 10 nM digoxigenin-labelled 188 bp katB promoter probe, various amounts of His6-OxyR variant, 4 mM Tris-HCl pH 8.0, 40 mM NaCl, 4 mM MgCl2, 4% glycerol, poly(dI-dC), room temperature 15 min, 7% native polyacrylamide gel. (In general: Mobility shift assays separate free from complexed probe on a gel.)

B1: SoOxyR RD_(C203S) (regulatory domain of Shewanella oneidensis OxyR, residues 91 to 304, C203S) (domain or fragment, UniProt Q8EHA1 91-304, looked up)
chain: EPMTGDIRLGCIPTIAPFLLSRVVKQCQQAYPEMSLLLKEDTTERLLDALGKGELDLLILALPVDTSGYHSMKVGIDPFKMVIHKDLVGGIHQPIDYQTLPDESIFLLQSEHSITGHAITACQLGDSAKVNPFAATSLHTLVQMVNSKLGTTFLPQMAIDAGILNDTDLVVMTPPGEAPYRDIGLVWRQTTSRILTFRTLGLLIQKLLTNETAQ
notes: OxyR of Shewanella oneidensis, regulatory domain (RD), residues 91 to 304 of the full-length protein, locked in the reduced form by C203S; Six molecules in the crystallographic asymmetric unit; also called RD_(C203S) of SoOxyR; SoOxyR^C203S RD
With B1, the binding result in data set [1] is “binds”.

B2: OxyR^Δ290− (SoOxyR truncation lacking all residues after 290) (domain or fragment, Shewanella oneidensis, UniProt Q8EHA1 1-290, looked up)
chain: MKNLPSLKNLYYLVNLHQEQNFNRAAKVCFVSQSTLSSGIQNLEEQLGHQLIERDHKSFMFTAIGEEVVQRSRKILTDVDDLVELVKNQGEPMTGDIRLGCIPTIAPFLLSRVVKQCQQAYPEMSLLLKEDTTERLLDALGKGELDLLILALPVDTSGYHSMKVGIDPFKMVIHKDLVGGIHQPIDYQTLPDESIFLLQSEHCITGHAITACQLGDSAKVNPFAATSLHTLVQMVNSKLGTTFLPQMAIDAGILNDTDLVVMTPPGEAPYRDIGLVWRQTTSRILTFRTL
notes: OxyR of Shewanella oneidensis, C-terminal truncation; the series is defined by SoOxyR^Δ283− (truncation lacking all residues after R283); also called SoOxyR^Δ290−; not shown: His6, N-terminal, kept
On to B2, for which, in data set [2], the “stoichiometry N” value turned out to be 4.

B3: OxyR^Δ286− (SoOxyR truncation lacking all residues after 286) (domain or fragment, Shewanella oneidensis, UniProt Q8EHA1 1-286, looked up)
chain: MKNLPSLKNLYYLVNLHQEQNFNRAAKVCFVSQSTLSSGIQNLEEQLGHQLIERDHKSFMFTAIGEEVVQRSRKILTDVDDLVELVKNQGEPMTGDIRLGCIPTIAPFLLSRVVKQCQQAYPEMSLLLKEDTTERLLDALGKGELDLLILALPVDTSGYHSMKVGIDPFKMVIHKDLVGGIHQPIDYQTLPDESIFLLQSEHCITGHAITACQLGDSAKVNPFAATSLHTLVQMVNSKLGTTFLPQMAIDAGILNDTDLVVMTPPGEAPYRDIGLVWRQTTSRILT
notes: OxyR of Shewanella oneidensis, C-terminal truncation; the series is defined by SoOxyR^Δ283− (truncation lacking all residues after R283); also called SoOxyR^Δ286−; not shown: His6, N-terminal, kept
With B3, the binding result in data set [2] was “binds”.

B4: OxyR_(R288E+F287A) (SoOxyR double point mutant) (natural protein, Shewanella oneidensis, UniProt Q8EHA1 1-304, looked up)
chain: MKNLPSLKNLYYLVNLHQEQNFNRAAKVCFVSQSTLSSGIQNLEEQLGHQLIERDHKSFMFTAIGEEVVQRSRKILTDVDDLVELVKNQGEPMTGDIRLGCIPTIAPFLLSRVVKQCQQAYPEMSLLLKEDTTERLLDALGKGELDLLILALPVDTSGYHSMKVGIDPFKMVIHKDLVGGIHQPIDYQTLPDESIFLLQSEHCITGHAITACQLGDSAKVNPFAATSLHTLVQMVNSKLGTTFLPQMAIDAGILNDTDLVVMTPPGEAPYRDIGLVWRQTTSRILTAETLGLLIQKLLTNETAQ
notes: OxyR of Shewanella oneidensis, the whole protein with two point mutations in helix α10; also called SoOxyR_(R288E-F287A); not shown: His6, N-terminal, kept
Take B4: the “stoichiometry N” value in data set [2] was found to be 4.

A word on the stoichiometry N: it is a count of units in the complex or per binding partner.
